Test results reported in patent US20170233480A1 (DEVELOPMENT CENTER FOR BIOTECHNOLOGY, published 2017).

T1: human VEGFR-3 (human, UniProt P35916 25-775, limits assumed)
T1 construct: also called flt-4
T1 sequence (looked up): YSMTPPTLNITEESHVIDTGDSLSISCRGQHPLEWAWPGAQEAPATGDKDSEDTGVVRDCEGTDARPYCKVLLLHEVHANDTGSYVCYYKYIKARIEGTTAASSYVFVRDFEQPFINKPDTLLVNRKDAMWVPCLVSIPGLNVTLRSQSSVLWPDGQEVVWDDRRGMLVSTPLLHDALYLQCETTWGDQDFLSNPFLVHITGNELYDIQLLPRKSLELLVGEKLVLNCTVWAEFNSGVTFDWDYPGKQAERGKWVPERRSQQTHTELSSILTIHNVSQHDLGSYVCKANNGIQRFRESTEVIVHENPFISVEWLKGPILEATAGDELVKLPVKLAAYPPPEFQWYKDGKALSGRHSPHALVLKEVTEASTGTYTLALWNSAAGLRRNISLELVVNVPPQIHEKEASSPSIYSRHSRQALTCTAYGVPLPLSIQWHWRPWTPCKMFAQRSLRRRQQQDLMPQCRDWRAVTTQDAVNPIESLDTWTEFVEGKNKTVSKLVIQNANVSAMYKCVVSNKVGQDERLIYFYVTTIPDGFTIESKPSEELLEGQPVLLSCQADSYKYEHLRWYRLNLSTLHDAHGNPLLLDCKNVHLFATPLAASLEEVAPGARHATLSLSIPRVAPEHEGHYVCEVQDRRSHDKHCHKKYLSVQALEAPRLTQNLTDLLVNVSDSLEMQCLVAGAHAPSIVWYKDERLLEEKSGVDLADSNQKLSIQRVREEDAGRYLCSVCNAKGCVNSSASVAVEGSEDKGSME

B1: 12A6 (antibody, V domains shown)
VH: QVQLQQSGPELVKPGASVKVSCKASGYSFTDYSMYWVKQSHGKSLEWIGYIDPYNDDTSYKQKFKGKATLTVDKSSSTAFMHLNSLTSEDSAVYYCAKGYADAMDYWGQGTSVTVSS
VL: DIQMIQSPSSLSASLGDTITITCHASQNINVWLSWYQQKPGNIPKLLIYKASNLHTGVPSRFSGSGSGTGFTLTISSLQPEDIATYYCQQGQSYPLTFGAGTKLELKR
notes: Expressed as a full-length antibody in FreeStyle 293 cells and detected with anti-human IgG
B2: 322A6 (antibody, V domains shown)
VH: EVQLQQSGPQLVRPGASAKISCKASGYAFTTYWMHWVKQRPGQGLEWIGMIDFSDSETKLNQRFKGKATLTVDKSSSTAYMQLSSPTSEDSAVYYCARDVRGNFDVWGAGTTVTVSS
VL: DIVLTQSPASLAVSLGQRATISCRASKSVSTSGYSYMHWYQQKPGQPPKLLIYLASNLESGVPARFSGSGSGTDFTLNIHPVEEEDAATYYCQHSRELPWTFGGGTKLEIKR
notes: Expressed as a full-length antibody in FreeStyle 293 cells from mouse-derived VH and VL; It was detected with anti-human IgG and anti-human kappa; also called 322A6 (45); c45
B3: Hu322B1HdH (antibody, V domains shown)
VH: QVQLVQSGAEVKKPGASVKVSCKASGYAFTTYWMHWVRQAPGQGLEWIGMIDFSDSETKLNQRFKGKATLTVDKSTSTAYMELSSLRSEDTAVYYCARDVRGNFDVWGQGTLVTVSS
VL: DIQMTQSPSSLSASVGDRVTITCRASKSVSTSGYSYMHWYQQKPGKAPKLLIYLASNLESGVPSRFSGSGSGTDFTLTISSLQPEDFATYYCQHSRELPWTFGQGTKVEIKR
notes: Humanized 322A6; The expression vector encodes the human kappa light-chain and human IgG1 C regions; also called 322A6(HuB1-Hd); combination clone of heavy chain (HuB1) and light chain (Hd) with 7 amino acid back mutation (7+0)

Assays:
[1] = molecular target: T2, human VEGFR-2 (domains 1 to 7) (human, UniProt P35968 20-764); assay: kinetic analysis with Rmax in RU, VEGFR-2 (domains 1 to 7) as analyte; method not named
T2 construct: The immunogen was VEGFR2-Fc-His and panning used VEGFR2-His; also called R2 D1-7; KDR

[2] = molecular target: mouse VEGFR-2 (mouse, UniProt P35918 20-762); assay: ELISA, plate coated with mouse VEGFR-2, HRP-anti-human IgG, OD450-650; bar chart of two runs (1st, 2nd); antibody concentration not given
Method: (§1) An ELSA plate was coated with 100 μL per well of human VEGFR-2, mouse VEGFR2, human VEGFR1 or human VEGFR3 overnight at 4° C., and then rinsed 3 times with PBS and blocked with 300 μL per well of 5% MPBS for 2 hr at 37° C. The wells were rinsed 3 times with PBS, and 100 μL of anti-VEGFR2 antibody, 2 fold serial dilutions, was added and incubated for 90 min at 37° C. The test solution was discarded and washed 3 times with PBS. Appropriate dilution of HRP-anti-Human IgG antibody in 5% MPBS (1:10000) was added and incubated for 60 min at 37° C., and the wells were washed 3 times with PBS. The wells were developed with 100 μL of substrate solution TMB and the reactions were terminated by adding 50 μL of 1 M sulfuric acid. The color turned yellow and the OD at 650 nm and at 450 nm was assayed.

[3] = molecular target: T3, human VEGFR-1 (human, UniProt P17948 27-758, limits assumed); assay: ELISA, plate coated with hVEGFR1 (0.1 µg/mL), antibody titration, OD450-650
T3 construct: also called flt-1
Method: as §1

[4] = molecular target: T1, human VEGFR-3; assay: ELISA, plate coated with hVEGFR3 (0.1 µg/mL), antibody titration, OD450-650
Method: as §1

[5] = molecular target: T2, human VEGFR-2 (domains 1 to 7); assay: ELISA on VEGFR-2 D1-7 and point mutants mut.1 to mut.10, antibody titration 6.86E-05 to 0.15 ug/ml, OD450
[6] = molecular target: T2, human VEGFR-2 (domains 1 to 7); assay: ELISA and BIAcore; no numbers given

T2 sequence (P35968 20-764 Q472H limits assumed): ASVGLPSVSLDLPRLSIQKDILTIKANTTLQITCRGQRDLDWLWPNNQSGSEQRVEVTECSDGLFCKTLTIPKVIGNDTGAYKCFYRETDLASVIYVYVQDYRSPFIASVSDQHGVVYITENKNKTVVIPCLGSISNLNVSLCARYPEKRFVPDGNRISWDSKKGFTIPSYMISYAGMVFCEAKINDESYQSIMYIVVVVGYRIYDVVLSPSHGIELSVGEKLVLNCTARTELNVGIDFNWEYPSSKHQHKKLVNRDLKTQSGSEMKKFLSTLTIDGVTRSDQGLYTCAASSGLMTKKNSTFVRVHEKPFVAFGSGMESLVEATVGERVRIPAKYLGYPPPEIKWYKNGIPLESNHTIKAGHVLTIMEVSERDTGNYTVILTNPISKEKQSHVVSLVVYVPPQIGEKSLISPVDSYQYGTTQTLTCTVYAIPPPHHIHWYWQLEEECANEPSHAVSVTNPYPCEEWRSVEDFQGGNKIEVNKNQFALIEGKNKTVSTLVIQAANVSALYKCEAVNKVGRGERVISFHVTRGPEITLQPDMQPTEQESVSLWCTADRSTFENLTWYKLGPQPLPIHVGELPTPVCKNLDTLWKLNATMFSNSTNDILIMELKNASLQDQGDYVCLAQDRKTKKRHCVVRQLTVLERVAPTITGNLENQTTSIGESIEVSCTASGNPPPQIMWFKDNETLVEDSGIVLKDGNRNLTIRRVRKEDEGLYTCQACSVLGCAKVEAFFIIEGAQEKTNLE
mouse VEGFR-2, sequence (P35918 20-762 limits assumed): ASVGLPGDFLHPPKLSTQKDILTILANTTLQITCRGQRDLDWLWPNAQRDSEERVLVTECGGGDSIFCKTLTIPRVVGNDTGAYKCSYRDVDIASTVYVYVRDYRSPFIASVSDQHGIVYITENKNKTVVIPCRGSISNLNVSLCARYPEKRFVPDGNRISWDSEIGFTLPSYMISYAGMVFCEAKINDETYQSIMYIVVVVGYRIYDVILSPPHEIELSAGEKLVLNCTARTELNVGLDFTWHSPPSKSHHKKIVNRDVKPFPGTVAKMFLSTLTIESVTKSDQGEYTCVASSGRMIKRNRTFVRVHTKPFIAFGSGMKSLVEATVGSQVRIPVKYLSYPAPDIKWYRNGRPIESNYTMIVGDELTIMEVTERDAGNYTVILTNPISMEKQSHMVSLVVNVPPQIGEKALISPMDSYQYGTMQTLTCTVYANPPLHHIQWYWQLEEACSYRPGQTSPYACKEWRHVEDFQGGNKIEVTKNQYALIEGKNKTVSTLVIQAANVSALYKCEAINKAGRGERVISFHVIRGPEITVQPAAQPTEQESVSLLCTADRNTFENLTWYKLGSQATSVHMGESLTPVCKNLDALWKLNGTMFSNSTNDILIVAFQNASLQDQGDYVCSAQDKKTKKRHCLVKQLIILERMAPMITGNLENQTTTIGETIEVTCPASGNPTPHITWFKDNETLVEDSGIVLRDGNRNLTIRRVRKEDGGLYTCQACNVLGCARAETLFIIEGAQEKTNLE
T3 sequence (P17948 27-758 limits assumed): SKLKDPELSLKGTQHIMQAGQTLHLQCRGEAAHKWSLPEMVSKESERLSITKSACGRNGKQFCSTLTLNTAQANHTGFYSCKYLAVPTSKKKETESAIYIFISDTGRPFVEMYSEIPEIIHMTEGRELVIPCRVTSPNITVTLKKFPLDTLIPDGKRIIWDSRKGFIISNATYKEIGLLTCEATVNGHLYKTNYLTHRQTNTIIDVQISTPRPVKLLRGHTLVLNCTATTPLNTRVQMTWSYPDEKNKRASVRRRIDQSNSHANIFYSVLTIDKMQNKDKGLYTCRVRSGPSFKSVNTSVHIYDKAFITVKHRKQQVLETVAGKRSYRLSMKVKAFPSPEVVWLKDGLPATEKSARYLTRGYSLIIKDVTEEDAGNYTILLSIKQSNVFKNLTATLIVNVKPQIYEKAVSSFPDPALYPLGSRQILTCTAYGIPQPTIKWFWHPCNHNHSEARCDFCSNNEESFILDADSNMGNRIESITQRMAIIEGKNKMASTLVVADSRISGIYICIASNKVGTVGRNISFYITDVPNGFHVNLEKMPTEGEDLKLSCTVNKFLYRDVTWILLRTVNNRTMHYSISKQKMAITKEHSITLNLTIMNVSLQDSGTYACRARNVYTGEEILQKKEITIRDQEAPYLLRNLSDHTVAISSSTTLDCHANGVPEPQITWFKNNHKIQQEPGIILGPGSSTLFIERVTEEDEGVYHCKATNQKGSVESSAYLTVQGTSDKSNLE

Row | Binder | Kd [1] | binding result [2] | binding result [3] | binding result [4] | EC50 (read off the curve) [5] | binding result [6]
1 | B1 | 4.6 nM | no binding |  |  |  | 
2 | B2 | 0.673 nM | binds | no binding (tested: 20 µg/mL (about 1.3e-7 M)) | no binding (tested: about 1.3e-7 M) | ~5 ng/mL | 
3 | B3 |  |  |  |  |  | binds
